Laboratory results taken from US20130012432A1 (Novo Nordisk, published 2013).
Positions of bridges follow the written chain, without caps; N, C: chain ends. Non-standard residues stand in square brackets, D forms with d. Groups on a side chain read outwards from the residue. Primed or numbered codes have the meaning given here. *: point of attachment. X2 = (2-(2-(16-(tetrazol-5-yl)hexadecanoylamino)ethoxy)ethoxy)acetyl, O=C(CCCCCCCCCCCCCCCc1nn[nH]n1)NCCOCCOCC(=O)*; X5 = NH(2-(2-(2-(17-carboxyheptadecanoylamino)ethoxy)ethoxy)ethyl), O=C(O)CCCCCCCCCCCCCCCCC(=O)NCCOCCOCCN*; X6 = (2-(2-(17-carboxyheptadecanoylamino)ethoxy)ethoxy)acetyl, O=C(O)CCCCCCCCCCCCCCCCC(=O)NCCOCCOCC(=O)*; X3 = (2-(2-(15-carboxypentadecanoylamino)ethoxy)ethoxy)acetyl, O=C(O)CCCCCCCCCCCCCCC(=O)NCCOCCOCC(=O)*; X4 = (2-(2-(16-carboxyhexadecanoylamino)ethoxy)ethoxy)acetyl, O=C(O)CCCCCCCCCCCCCCCC(=O)NCCOCCOCC(=O)*; biscarboxymethyl = Lys(biscarboxymethyl) = Nepsilon-bis(carboxymethyl)-L-lysine; biscarboxymethyl(4) = Lys(biscarboxymethyl) = N6-bis(carboxymethyl)-L-lysine; bis(carboxymethyl) = Lys(biscarboxymethyl) = N6-bis(carboxymethyl)-L-lysine; Palmitoyl(16-(5-tetrazolyl)) = O=C(CCCCCCCCCCCCCCCc1nnn[nH]1)*; biscarboxymethyl(3) = Nepsilon-bis(carboxymethyl) on Lys; biscarboxymethyl″ = N6-bis(carboxymethyl) on L-lysine; Lys(CH2CO2H)2 = N[C@@H](CCCCN(CC(=O)O)CC(=O)O)C(=O)O; C18 diacid = O=C(O)CCCCCCCCCCCCCCCCC(=O)*; C17 diacid = O=C(O)CCCCCCCCCCCCCCCC(=O)*; C16 diacid = O=C(O)CCCCCCCCCCCCCCC(=O)*; Hyp = O=C(O)[C@@H]1C[C@@H](O)CN1; NTA = O=C(O)CN(CC(=O)O)CC(=O)*; hCys = N[C@@H](CCS)C(=O)O; Orn = NCCC[C@H](N)C(=O)O; Dab = NCC[C@H](N)C(=O)O; Dap = NC[C@H](N)C(=O)O; AEEA = NCCOCCOCC(=O)O

How the values were obtained:
[1] = molecular target: T1, MC1 receptor (UniProt Q01726 1-317, limits assumed); test: 125I-NDP-α-MSH displacement, BHK-MC1 membranes (Assay IV);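 also: membrane incubations stopped by filtration, retained radioactivity counted, Ki fitted by nonlinear regression to binding curves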
T1 construct: whole, on cells; also called melanocortin receptor subtype 1; melanocortin receptor 1
Procedure: The MC1 receptor binding assay was performed on BHK cell membranes stably expressing the MC1 receptor. […] Test compounds were dissolved in DMSO. […] Alternatively, HSA may be substituted with ovalbumin. The samples were incubated at 30° C. for 90 min. in Costar round-bottom microtiter plates. Incubation was terminated by filtration on a Packard harvester filtermate. […] The filters were washed with ice-cold 0.9% NaCl 8-10 times. […] The plates were counted in a Topcounter (1 min/well).
(§1) The data were analysed by non-linear regression analysis of binding curves, using the Windows™ program GraphPad™ Prism (GraphPad Software, USA).

[2] = molecular target: T2, human MC4 receptor (human, UniProt P32245 1-332); test: 125I-NDP-α-MSH displacement, BHK-human MC4 membranes (Assay V);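 also: Filter-retained radioactivity read by gamma counting, with affinity obtained through non-linear regression fitting of the binding curves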
T2 construct: whole, on cells; Assayed as membranes of BHK cells stably expressing the receptor; also called melanocortin receptor subtype 4; melanocortin receptor 4
T2 sequence (P32245 whole entry): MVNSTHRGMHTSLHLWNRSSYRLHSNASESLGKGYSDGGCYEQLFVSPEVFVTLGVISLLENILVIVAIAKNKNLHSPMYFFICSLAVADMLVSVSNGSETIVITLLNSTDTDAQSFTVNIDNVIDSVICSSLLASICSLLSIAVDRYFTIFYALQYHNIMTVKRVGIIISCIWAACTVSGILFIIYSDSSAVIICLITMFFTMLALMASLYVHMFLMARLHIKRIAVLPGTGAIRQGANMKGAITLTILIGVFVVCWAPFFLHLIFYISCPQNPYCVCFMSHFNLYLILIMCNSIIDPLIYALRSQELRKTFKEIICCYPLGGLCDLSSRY
Procedure: The membranes were prepared from frozen or fresh cells that were homogenized in 20 mM HEPES pH 7.1, 5 mM MgCl₂ and 1 mg/ml bacitracin and centrifuged at 15000 rpm at 4° C., 10 min in a Sorvall RC 5B plus, SS-34 rotor. The supernatant was discarded, and the pellets were re-suspended in buffer, homogenized and centrifuged two more times. The final pellets were resuspended in the buffer mentioned above, and the protein concentration was measured and adjusted with buffer to 14 to 17 mg/ml and the membrane preparation were kept at −80° C. until assay. The assay was run directly on a dilution of this cell membrane suspension, without any further preparation. The BHK cell membranes are kept at −80° C. until assay, and the assay is run directly on a dilution of this cell membrane suspension, without further preparation. The suspension is diluted to give maximally 10% specific binding, i.e. to approx. 50-100 fold dilution. […] Test compounds were dissolved in DMSO and diluted in binding buffer. Radiolabelled ligand and membranes were diluted in binding buffer. The incubation was stopped by dilution with 2×100 μl ice-cold 0.9% NaCl. The radioactivity retained on the filters was counted using a Cobra II auto gamma counter.
as §1

T1 sequence (Q01726 whole entry): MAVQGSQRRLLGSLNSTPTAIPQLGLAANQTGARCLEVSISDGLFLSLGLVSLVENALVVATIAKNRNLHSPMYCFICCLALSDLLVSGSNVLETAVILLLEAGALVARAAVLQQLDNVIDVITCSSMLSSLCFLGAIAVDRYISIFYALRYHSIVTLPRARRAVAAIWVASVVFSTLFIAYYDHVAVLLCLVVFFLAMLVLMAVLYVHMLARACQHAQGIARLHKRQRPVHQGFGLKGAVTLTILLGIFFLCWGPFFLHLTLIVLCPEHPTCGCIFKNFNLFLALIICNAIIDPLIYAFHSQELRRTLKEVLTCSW

Question: What does the source list for Ac-[Orn]H[dF]RWDPPREK(biscarboxymethyl)SS-X5 (lactam 1-6)?
Answer: Ki [1]: 2500 nM; Ki [2]: 0.93 nM

Question: Which Ki [1] does the source give for Ac-[Dap]H[dF]RWDPPRDK(biscarboxymethyl(3))K([AEEA-Palmitoyl(16-(5-tetrazolyl))])-NH2 (lactam 1-6) here?
Answer: 1830 nM

Question: What about the Ki [2] of the same binder?
Answer: 5.16 nM

Question: For Ac-[Dap]H[dF]RWEPPRDK(biscarboxymethyl(3))K([AEEA-Palmitoyl(16-(5-tetrazolyl))])-NH2 (lactam 1-6), which Ki [1] is on record?
Answer: 3850 nM

Question: And the Ki [2]?
Answer: 0.7 nM

Question: With Ac-[Orn]H[dF]RWDPPRDK(biscarboxymethyl)K(X2)-NH2 (lactam 1-6) as the binder, how does the Ki [1] read?
Answer: 2340 nM

Question: What about the Ki [2] of the same binder?
Answer: 0.85 nM

Question: Which Ki [1] does the source give for Ac-[Orn]H[dF]RWDPPHEK(biscarboxymethyl)K(X3)-NH2 (lactam 1-6) here?
Answer: 8600 nM

Question: What about the Ki [2] of the same binder?
Answer: 3.4 nM

Question: Ac-[Orn]H[dF]RWDPPHEK(biscarboxymethyl)K(X6)-NH2 (lactam 1-6) was tested. Which Ki [1] did it give?
Answer: 7370 nM

Question: And the Ki [2]?
Answer: 1.8 nM

Question: Which Ki [1] does the source give for Ac-EH[dF]RW[Orn]PPRDK(biscarboxymethyl)K(X2)-NH2 (lactam 1-6) here?
Answer: 5240 nM

Question: And the Ki [2]?
Answer: 1.42 nM

Question: Which results are given for Ac-[hCys]H[dF]RWCSPHEK(bis(carboxymethyl))K([AEEA-C18 diacid])-NH2 (disulfide 1-6)?
Answer: Ki [1]: 442 nM; Ki [2]: 0.55 nM

Question: Which Ki [1] does the source give for Ac-[hCys]H[dF]RWCSPKEK(bis(carboxymethyl))K([AEEA-C16 diacid])-NH2 (disulfide 1-6) here?
Answer: 169 nM

Question: And the Ki [2]?
Answer: 3.43 nM

Question: Which Ki [1] does the source give for Ac-[hCys]S[dF]RWCPPKEK(biscarboxymethyl″)K(X2)-NH2 (disulfide 1-6) here?
Answer: 2060 nM

Question: And the Ki [2]?
Answer: 10 nM

Question: How did the Ki [1] turn out when Ac-[Orn]H[dF]RWDPPREK(biscarboxymethyl)K(X2)-NH2 (lactam 1-6) was run?
Answer: 2770 nM

Question: And the Ki [2]?
Answer: 0.33 nM

Question: How did the Ki [1] turn out when Ac-[Dab]H[dF]RWDPPRDK(biscarboxymethyl(3))K([AEEA-Palmitoyl(16-(5-tetrazolyl))])-NH2 (lactam 1-6) was run?
Answer: 5740 nM

Question: What about the Ki [2] of the same binder?
Answer: 31 nM

B1: Ac-c[Dap-His-D-Phe-Arg-Trp-Asp]-Pro-Pro-Arg-Asp-Lys(BCMA)-Lys[(2-{2-[16-(tetrazol-5-yl)hexadecanoylamino]ethoxy}ethoxy)acetyl]-NH2 (peptide)
peptide: Ac-[Dap]H[dF]RWDPPRDK(NTA)K([AEEA-Palmitoyl(16-(5-tetrazolyl))])-NH2
modifications: lactam 1-6
SMILES: CC(=O)N[C@H]1CNC(=O)C[C@@H](C(=O)N2CCC[C@H]2C(=O)N2CCC[C@H]2C(=O)N[C@@H](CCCNC(=N)N)C(=O)N[C@@H](CC(=O)O)C(=O)N[C@@H](CCCCNC(=O)CN(CC(=O)O)CC(=O)O)C(=O)N[C@@H](CCCCNC(=O)COCCOCCNC(=O)CCCCCCCCCCCCCCCc2nnn[nH]2)C(N)=O)NC(=O)[C@H](Cc2c[nH]c3ccccc23)NC(=O)[C@H](CCCNC(=N)N)NC(=O)[C@@H](Cc2ccccc2)NC(=O)[C@H](Cc2c[nH]cn2)NC1=O
Question: B1 was tested. Which Ki [1] did it give?
Answer: 5550 nM

Question: And the Ki [2]?
Answer: 8.95 nM

Question: With Ac-[Orn]H[dF]RWDPPHEK(biscarboxymethyl)K(X4)-NH2 (lactam 1-6) as the binder, how does the Ki [1] read?
Answer: 4830 nM

Question: What about the Ki [2] of the same binder?
Answer: 1.05 nM

Question: With Ac-[Orn]H[dF]RWEPPRDK(bis(carboxymethyl))K([AEEA-Palmitoyl(16-(5-tetrazolyl))])-NH2 (lactam 1-6) as the binder, how does the Ki [1] read?
Answer: 433 nM

Question: What about the Ki [2] of the same binder?
Answer: 3.53 nM

Question: What does the source list for Ac-EH[dF]RW[Orn][Hyp][Hyp]RDK(biscarboxymethyl)K(X2)-NH2 (lactam 1-6)?
Answer: Ki [1]: 7230 nM; Ki [2]: 3.25 nM

Question: Ac-[Orn]H[dF]RWDPSSSK(biscarboxymethyl)SSK(X3)-NH2 (lactam 1-6) was tested. Which Ki [1] did it give?
Answer: 3890 nM

Question: What about the Ki [2] of the same binder?
Answer: 1.2 nM

B2: Ac-c[Cys-Glu-His-D-Phe-Arg-Trp-Gly-Cys]-Pro-Pro-Lys-Glu-Glu-Lys({2-[2-(15-carboxypentadecanoylamino)ethoxy]ethoxy}acetyl)-NH2 (peptide)
peptide: Ac-CEH[dF]RWGCPPKEEK([AEEA-C16 diacid])-NH2
modifications: disulfide 1-8
SMILES: CC(=O)N[C@H]1CSSC[C@@H](C(=O)N2CCC[C@H]2C(=O)N2CCC[C@H]2C(=O)N[C@@H](CCCCN)C(=O)N[C@@H](CCC(=O)O)C(=O)N[C@@H](CCC(=O)O)C(=O)N[C@@H](CCCCNC(=O)COCCOCCNC(=O)CCCCCCCCCCCCCCC(=O)O)C(N)=O)NC(=O)CNC(=O)[C@H](Cc2c[nH]c3ccccc23)NC(=O)[C@H](CCCNC(=N)N)NC(=O)[C@@H](Cc2ccccc2)NC(=O)[C@H](Cc2c[nH]cn2)NC(=O)[C@H](CCC(=O)O)NC1=O
Question: How did the Ki [1] turn out when B2 was run?
Answer: 7220 nM

Question: And the Ki [2]?
Answer: 6.2 nM

B3: Ac-c[homoCys-His-D-Phe-Arg-Trp-Cys]-Pro-Pro-Lys-Asp-Dap(BCMA)-Lys[(2-{2-[16-(tetrazol-5-yl)hexadecanoylamino]ethoxy}ethoxy)acetyl]-NH2 (peptide)
peptide: Ac-[hCys]H[dF]RWCPPKD[Dap](NTA)K([AEEA-Palmitoyl(16-(5-tetrazolyl))])-NH2
modifications: disulfide 1-6
SMILES: CC(=O)N[C@H]1CCSSC[C@@H](C(=O)N2CCC[C@H]2C(=O)N2CCC[C@H]2C(=O)N[C@@H](CCCCN)C(=O)N[C@@H](CC(=O)O)C(=O)N[C@@H](CNC(=O)CN(CC(=O)O)CC(=O)O)C(=O)N[C@@H](CCCCNC(=O)COCCOCCNC(=O)CCCCCCCCCCCCCCCc2nnn[nH]2)C(N)=O)NC(=O)[C@H](Cc2c[nH]c3ccccc23)NC(=O)[C@H](CCCNC(=N)N)NC(=O)[C@@H](Cc2ccccc2)NC(=O)[C@H](Cc2c[nH]cn2)NC1=O
Question: With B3 as the binder, how does the Ki [1] read?
Answer: 7540 nM

Question: What about the Ki [2] of the same binder?
Answer: 0.64 nM

B4: Ac-c[homoCys-His-D-Phe-Arg-Trp-Cys]-Pro-Pro-Lys-Glu-Dap(BCMA)-Lys[(2-{2-[16-(tetrazol-5-yl)hexadecanoylamino]ethoxy}ethoxy)acetyl]-NH2 (peptide)
peptide: Ac-[hCys]H[dF]RWCPPKE[Dap](NTA)K([AEEA-Palmitoyl(16-(5-tetrazolyl))])-NH2
modifications: disulfide 1-6
SMILES: CC(=O)N[C@H]1CCSSC[C@@H](C(=O)N2CCC[C@H]2C(=O)N2CCC[C@H]2C(=O)N[C@@H](CCCCN)C(=O)N[C@@H](CCC(=O)O)C(=O)N[C@@H](CNC(=O)CN(CC(=O)O)CC(=O)O)C(=O)N[C@@H](CCCCNC(=O)COCCOCCNC(=O)CCCCCCCCCCCCCCCc2nnn[nH]2)C(N)=O)NC(=O)[C@H](Cc2c[nH]c3ccccc23)NC(=O)[C@H](CCCNC(=N)N)NC(=O)[C@@H](Cc2ccccc2)NC(=O)[C@H](Cc2c[nH]cn2)NC1=O
Question: How did the Ki [1] turn out when B4 was run?
Answer: 177 nM

Question: And the Ki [2]?
Answer: 0.6 nM

Question: Which results are given for Ac-DH[dF]RW[Dab]PPRDK(biscarboxymethyl(4))K(X2)-NH2 (lactam 1-6)?
Answer: Ki [1]: 5140 nM; Ki [2]: 1.33 nM

B5: Ac-c[Asp-His-D-Phe-Arg-Trp-Dap]-Pro-Pro-Arg-Asp-Lys(BCMA)-Lys[(2-{2-[16-(tetrazol-5-yl)hexadecanoylamino]ethoxy}ethoxy)acetyl]-NH2 (peptide)
peptide: Ac-DH[dF]RW[Dap]PPRDK(NTA)K(X2)-NH2
modifications: lactam 1-6
SMILES: CC(=O)N[C@H]1CC(=O)NC[C@@H](C(=O)N2CCC[C@H]2C(=O)N2CCC[C@H]2C(=O)N[C@@H](CCCNC(=N)N)C(=O)N[C@@H](CC(=O)O)C(=O)N[C@@H](CCCCNC(=O)CN(CC(=O)O)CC(=O)O)C(=O)N[C@@H](CCCCNC(=O)COCCOCCNC(=O)CCCCCCCCCCCCCCCc2nn[nH]n2)C(N)=O)NC(=O)[C@H](Cc2c[nH]c3ccccc23)NC(=O)[C@H](CCCNC(=N)N)NC(=O)[C@@H](Cc2ccccc2)NC(=O)[C@H](Cc2c[nH]cn2)NC1=O
Question: Which Ki [1] does the source give for B5 here?
Answer: 7980 nM

Question: What about the Ki [2] of the same binder?
Answer: 107 nM

Question: What does the source list for Ac-DH[dF]RW[Orn]PPRDK(biscarboxymethyl(3))K([AEEA-Palmitoyl(16-(5-tetrazolyl))])-NH2 (lactam 1-6)?
Answer: Ki [1]: 2540 nM; Ki [2]: 33 nM

Question: Which Ki [1] does the source give for Ac-EH[dF]RW[Orn]PPHDK(biscarboxymethyl)K(X2)-NH2 (lactam 1-6) here?
Answer: 5170 nM

Question: What about the Ki [2] of the same binder?
Answer: 3.58 nM

B6: Ac-c[Lys-His-D-Phe-Arg-Trp-Asp]-Pro-Pro-His-Ser-Lys(biscarboxymethyl)-Ser-Ser-Glu-Lys({2-[2-(16-carboxyhexadecanoylamino)ethoxy]ethoxy}acetyl)-NH2 (peptide)
peptide: Ac-KH[dF]RWDPPHS[Lys(CH2CO2H)2]SSEK([AEEA-C17 diacid])-NH2
modifications: lactam 1-6
SMILES: CC(=O)N[C@H]1CCCCNC(=O)C[C@@H](C(=O)N2CCC[C@H]2C(=O)N2CCC[C@H]2C(=O)N[C@@H](Cc2c[nH]cn2)C(=O)N[C@@H](CO)C(=O)N[C@@H](CCCCN(CC(=O)O)CC(=O)O)C(=O)N[C@@H](CO)C(=O)N[C@@H](CO)C(=O)N[C@@H](CCC(=O)O)C(=O)N[C@@H](CCCCNC(=O)COCCOCCNC(=O)CCCCCCCCCCCCCCCC(=O)O)C(N)=O)NC(=O)[C@H](Cc2c[nH]c3ccccc23)NC(=O)[C@H](CCCNC(=N)N)NC(=O)[C@@H](Cc2ccccc2)NC(=O)[C@H](Cc2c[nH]cn2)NC1=O
Question: With B6 as the binder, how does the Ki [2] read?
Answer: 14 nM

B7: Ac-c[Glu-His-D-Phe-Arg-Trp-Lys]-Hyp-Hyp-Arg-Asp-Lys(biscarboxymethyl)-Lys[(2-{2-[16-(tetrazol-5-yl)hexadecanoylamino]ethoxy}ethoxy)acetyl]-NH2 (peptide)
peptide: Ac-EH[dF]RWK[Hyp][Hyp]RD[Lys(CH2CO2H)2]K([AEEA-Palmitoyl(16-(5-tetrazolyl))])-NH2
modifications: lactam 1-6
SMILES: CC(=O)N[C@H]1CCC(=O)NCCCC[C@@H](C(=O)N2C[C@H](O)C[C@H]2C(=O)N2C[C@H](O)C[C@H]2C(=O)N[C@@H](CCCNC(=N)N)C(=O)N[C@@H](CC(=O)O)C(=O)N[C@@H](CCCCN(CC(=O)O)CC(=O)O)C(=O)N[C@@H](CCCCNC(=O)COCCOCCNC(=O)CCCCCCCCCCCCCCCc2nnn[nH]2)C(N)=O)NC(=O)[C@H](Cc2c[nH]c3ccccc23)NC(=O)[C@H](CCCNC(=N)N)NC(=O)[C@@H](Cc2ccccc2)NC(=O)[C@H](Cc2c[nH]cn2)NC1=O
Question: For B7, which Ki [2] is on record?
Answer: 21 nM
